This is an account of results in article PMC9617004, “Cloning and characterization of thermophilic endoglucanase and its application in the transformation of ginsenosides” (AMB Express, 2022).

Test in all cases: HPLC of ginsenoside conversion, Michaelis-Menten
What all share (format): biochemical, Fervidobacterium pennivorans
What all share (details): 50 mM phosphate-citrate, pH 6.0, 95 °C, substrate range stated as 0.5 to 10.0 mM (printed unit µM may be mM)

Substrate in data set [1]: CC(C)=CCC[C@](C)(O[C@@H]1O[C@H](CO)[C@@H](O)[C@H](O)[C@H]1O)[C@H]1CC[C@]2(C)[C@@H]1[C@H](O)C[C@@H]1[C@@]3(C)CC[C@H](O[C@@H]4O[C@H](CO)[C@@H](O)[C@H](O)[C@H]4O[C@@H]4O[C@H](CO)[C@@H](O)[C@H](O)[C@H]4O)C(C)(C)[C@@H]3CC[C@]12C
From the text: (§1) HPLC of ginsenoside conversion, Michaelis-Menten on BcelFp

Substrate in data set [2]: [H][C@@]1(O[C@@H]2[C@@H](O)[C@H](O)[C@@H](CO)O[C@@]2([H])O[C@H]2CC[C@]3(C)[C@@]4([H])C[C@@H](O)[C@]5([H])[C@@]([H])([C@](C)(CCC=C(C)C)O[C@@H]6O[C@H](CO[C@@H]7OC[C@H](O)[C@H](O)[C@H]7O)[C@@H](O)[C@H](O)[C@H]6O)CC[C@@]5(C)[C@]4(C)CC[C@@]3([H])C2(C)C)O[C@H](CO)[C@@H](O)[C@H](O)[C@H]1O
Source text: as §1

Substrate in data set [3]: CC(C)=CCC[C@](C)(O[C@@H]1O[C@H](CO[C@@H]2O[C@H](CO)[C@@H](O)[C@H](O)[C@H]2O)[C@@H](O)[C@H](O)[C@H]1O)[C@H]1CC[C@]2(C)[C@@H]1[C@H](O)C[C@@H]1[C@@]3(C)CC[C@H](O[C@@H]4O[C@H](CO)[C@@H](O)[C@H](O)[C@H]4O[C@@H]4O[C@H](CO)[C@@H](O)[C@H](O)[C@H]4O)C(C)(C)[C@@H]3CC[C@]12C
Source text: as §1

B1: BcelFp (Fervidobacterium pennivorans DSM 9078) (protein)
chain: MDQSVAESDSNSALEYNKIIGKGVNIGNALEAPFEGAWGVRIEDEYFEIIKKRGFDSVRIPIRWSAHISEKPPYDIDRNFLERVKHVVDRALENNLTVIINTHHFEELYQEPDKYGNVLVEIWRQIAKFFKDYPENLFFEIYNEPAQNLTAEKWNELYPKVLKVIRESNPTRIVIIDAPNWAHYSAVRSLKLVNDKRIIVSFHYYEPFNFTHQGAEWVNPTPPVGVKWNGEEWEINQIRSHFKYVSDWAKQNKVPIFLGEFGAYSKADMDSRVKWTESVRKMAEEFGFSYAYWEFCAGFGIYDRWSQNWIEPLATAVVGESKE
notes: 323 residues (969 bp), N-terminal His-tag, pET28a BamHI/XhoI, E. coli BL21-CodonPlus(DE3)-RIL, Ni-NTA; calculated 37,892 Da, about 38 kDa by SDS-PAGE; forward primer starts … (MDQSVA)
Take B1: the Vmax (as a rule, the rate approached at saturating substrate) in data set [1] amounted to 156 µM/min; in data set [2], 315 µM/min; in data set [3] it was 382 µM/min. Besides, the values for the kcat/Km in data set [1], in data set [2] and in data set [3] were 27900 M⁻¹ s⁻¹, 9390 M⁻¹ s⁻¹ and 12500 M⁻¹ s⁻¹, respectively. The Km (as a rule, the concentration of substrate that gives half-maximal velocity) in data set [1] (unit of the source corrected) was 670 µM; in data set [2] (unit of the source corrected), 4020 µM; in data set [3] (unit of the source corrected), 3660 µM.
